Values of other authors, collected in paper PMC8469563.

Molecular target: C1q (Homo sapiens) (UniProt P02745)
Chain of UniProt P02745 (P02745 23-245, chain 1 of 3): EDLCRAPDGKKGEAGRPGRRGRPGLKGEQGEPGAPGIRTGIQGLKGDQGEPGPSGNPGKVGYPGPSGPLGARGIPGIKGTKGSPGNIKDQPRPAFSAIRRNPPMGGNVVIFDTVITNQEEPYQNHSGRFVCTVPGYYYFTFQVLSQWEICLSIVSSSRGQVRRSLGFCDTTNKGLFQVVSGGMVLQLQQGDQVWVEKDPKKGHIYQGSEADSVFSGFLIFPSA
Chain of UniProt P02745 (P02746 28-253, chain 2 of 3, further chain): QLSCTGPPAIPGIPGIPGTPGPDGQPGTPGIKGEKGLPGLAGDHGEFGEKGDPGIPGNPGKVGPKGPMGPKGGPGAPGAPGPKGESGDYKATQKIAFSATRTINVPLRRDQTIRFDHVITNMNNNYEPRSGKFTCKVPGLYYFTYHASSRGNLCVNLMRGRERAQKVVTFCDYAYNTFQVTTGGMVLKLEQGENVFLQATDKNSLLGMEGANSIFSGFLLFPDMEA
Chain of UniProt P02745 (P02747 29-245, chain 3 of 3, further chain): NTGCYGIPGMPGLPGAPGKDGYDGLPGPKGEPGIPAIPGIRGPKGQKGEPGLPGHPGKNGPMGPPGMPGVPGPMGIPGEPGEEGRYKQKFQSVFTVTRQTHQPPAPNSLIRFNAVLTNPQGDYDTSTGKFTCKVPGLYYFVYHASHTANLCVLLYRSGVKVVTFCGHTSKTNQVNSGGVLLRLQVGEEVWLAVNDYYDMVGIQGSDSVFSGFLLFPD

Kd: 0.2 µM
Substance: HMGB1 (from UniProt P09429)
